The labels stand for the following.
B1: IgG1-F1138 (antibody)
heavy: QVQLQESGPGLVKPSETLSLTCAVSGHSISHDHAWSWVRQPPGEGLEWIGFISYSGITNYNPSLQGRVTISRDNSKNTLYLQMNSLRAEDTAVYYCARSLARTTAMDYWGEGTLVTVSSASTKGPSVFPLAPSSKSTSGGTAALGCLVKDYFPEPVTVSWNSGALTSGVHTFPAVLQSSGLYSLSSVVTVPSSSLGTQTYICNVNHKPSNTKVDKKVEPKSCDKTHTCPPCPAPELRGGPKVFLFPPKPKDTLYISRTPEVTCVVVDVSHEDPEVKFNWYVDGVEVHNAKTKPREEQYNSTYRVVSVLTVLHQDWLNGKEYKCKVSNKALPAPIEKTISKAKGQPREPQVYTLPPSRDELTKNQVSLTCLVKGFYPSDIAVEWESNGQPENNYKTTPPVLDSDGSFFLYSKLTVDKSRWQQGNVFSCSVMHEALHYHVTRKELSLSP
light: not shown
B2: F1612 (antibody)
chain 1: B1 heavy with S256T, R257L, T258E, E260D, H435D, R440K, E442D
chain 2: DIQMTQSPSSLSASVGDSVTITCQASTDISSHLNWYQQKPGKAPELLIYYGSHLLSGVPSRFSGSGSGTDFTFTISSLEAEDAATYYCGQGNRLPYTFGQGTKVEIERTVAAPSVFIFPPSDEQLKSGTASVVCLLNNFYPREAKVQWKVDNALQSGNSQESVTEQDSKDSTYSLSSTLTLSKADYEKHKVYACEVTHQGLSSPVTKSFNRGEC
B3: F1586 (antibody)
chain 1: B1 heavy with S256T, R257L, T258E, E260D, H435D
chain 2: B2 chain 2
B4: F1610 (antibody)
chain 1: B1 heavy with S256T, R257L, T258E, E260D, H435D, R440K
chain 2: B2 chain 2
B5: F1611 (antibody)
chain 1: B1 heavy with S256T, R257L, T258E, E260I, H435D, R440K
chain 2: B2 chain 2
B6: F1592 (antibody)
chain 1: B1 heavy with S256T, R257L, T258E, E260I, H435D
chain 2: B2 chain 2
B7: F1599 (antibody)
chain 1: B1 heavy with S256T, T258E, H435D, R440K, E442D
chain 2: B2 chain 2
B8: F1605 (antibody)
chain 1: B1 heavy with S256T, R257L, T258E, H435D, E442D
chain 2: B2 chain 2
B9: F1603 (antibody)
heavy: B1 heavy with S256T, R257L, T258E, H435D, R440K
light: B2 chain 2
B10: F1654 (antibody)
heavy: B1 heavy with S256T, T258E, H435S, E442D
light: B2 chain 2
B11: IgG1-F1269 (antibody)
heavy: B1 heavy with H435D, R440K, E442D
light: not shown
B12: F1604 (antibody)
heavy: B1 heavy with S256T, R257L, T258E, H435D, R440K, E442D
light: B2 chain 2
B13: F1653 (antibody)
heavy: B1 heavy with S256T, T258E, H435S, R440K
light: B2 chain 2
B14: IgG1-F1351 (antibody)
heavy: B1 heavy with V438F
light: not shown
B15: F1601 (antibody)
heavy: B1 heavy with S256T, T258E, N288E, H435D, R440K, E442D
light: B2 chain 2
B16: IgG1-F1262 (antibody)
heavy: B1 heavy with R440K
light: not shown
B17: IgG1-F1350 (antibody)
heavy: B1 heavy with V438F, R440K
light: not shown
B18: IgG1-F1263 (antibody)
heavy: B1 heavy with R440K, E442D
light: not shown
B19: IgG1-F1329 (antibody)
heavy: B1 heavy with G238R, S256T
light: not shown
B20: IgG1-F1305 (antibody)
heavy: B1 heavy with H435D, E442D
light: not shown
B21: IgG1-F1349 (antibody)
heavy: B1 heavy with V438T
light: not shown
B22: F1655 (antibody)
heavy: B1 heavy with S256T, T258E, H435S, R440K, E442D
light: B2 chain 2
B23: IgG1-F1261 (antibody)
heavy: B1 heavy with E442D
light: not shown
B24: F1566 (antibody)
heavy: B1 heavy with S256T, T258E, N288E, H435D, R440K
light: B2 chain 2
B25: IgG1-F1306 (antibody)
heavy: B1 heavy with H435D, R440K
light: not shown
B26: IgG1-F1344 (antibody)
heavy: B1 heavy with V438T, R440K
light: not shown
B27: IgG1-F1331 (antibody)
heavy: B1 heavy with G238R, S256T, T258E
light: not shown
B28: IgG1-F1145 (antibody)
heavy: B1 heavy with R237L, K241S, T252V, T309Q, Q313A
light: not shown
notes: VH3-IgG1 with Fc substitutions (EU numbering) + L(WT)-CK
B29: IgG1-F1144 (antibody)
heavy: B1 heavy with T252V, T309Q, V310P, Q313A
light: not shown
notes: as for B28
B30: IgG1-F1133 (antibody)
heavy: B1 heavy with S426R, R440Q, E442S
light: not shown
notes: as for B28
B31: IgG1-F1154 (antibody)
heavy: B1 heavy with T252V, T309Q, V310P, Q313A, S426N, R440Q, E442S
light: not shown
notes: as for B28
B32: IgG1-F1158 (antibody)
heavy: B1 heavy with V438Y
light: not shown
notes: as for B28
B33: IgG1-F1134 (antibody)
heavy: B1 heavy with E442S
light: not shown
notes: as for B28
B34: IgG1-F1157 (antibody)
heavy: B1 heavy with R237L, K241S, V438Y
light: not shown
notes: as for B28
B35: IgG1-F1147 (antibody)
heavy: B1 heavy with R237L, K241S, T309Q, Q313A, V438Y
light: not shown
notes: as for B28
B36: IgG1-F1137 (antibody)
heavy: B1 heavy with V424S, S426R, R440Q, E442S
light: not shown
notes: as for B28
B37: IgG1-F1151 (antibody)
heavy: B1 heavy with S426N, V438Y, R440Q, E442S
light: not shown
notes: as for B28
B38: IgG1-F1142 (antibody)
heavy: B1 heavy with V424E, S426R
light: not shown
notes: as for B28
B39: IgG1-F1140 (antibody)
heavy: B1 heavy with R237L, K241S, V424E, S426R
light: not shown
notes: as for B28
B40: IgG1-F1138 (antibody)
heavy: B1 heavy
light: not shown
notes: as for B28
B41: IgG1-F1135 (antibody)
heavy: B1 heavy with R440Q
light: not shown
notes: as for B28
B42: IgG1-F1148 (antibody)
heavy: B1 heavy with T309Q, Q313A, V438Y
light: not shown
notes: as for B28
B43: IgG1-F1152 (antibody)
heavy: B1 heavy with T309Q, Q313A, S426N, V438Y, R440Q, E442S
light: not shown
notes: as for B28
B44: IgG1-F1153 (antibody)
heavy: B1 heavy with T252V, T309Q, Q313A, S426N, R440Q, E442S
light: not shown
notes: as for B28
B45: IgG1-F1143 (antibody)
heavy: B1 heavy with V424S, S426R
light: not shown
notes: as for B28
B46: IgG1-F1139 (antibody)
heavy: B1 heavy with S426N, R440Q, E442S
light: not shown
notes: as for B28
B47: IgG1-F1141 (antibody)
heavy: B1 heavy with R237L, K241S, V424S, S426R
light: not shown
notes: as for B28
B48: IgG1-F1146 (antibody)
heavy: B1 heavy with T252V, T309Q, Q313A
light: not shown
notes: as for B28
B49: IgG1-F1136 (antibody)
heavy: B1 heavy with V424E, S426R, R440Q, E442S
light: not shown
notes: as for B28

Where a chain is given by its changes, count along the chain named.

These results are taken from patent publication US20140363428A1 (Chugai, published 2014).

T1 sequence (P55899 24-297 limits assumed, chain 1 of 2): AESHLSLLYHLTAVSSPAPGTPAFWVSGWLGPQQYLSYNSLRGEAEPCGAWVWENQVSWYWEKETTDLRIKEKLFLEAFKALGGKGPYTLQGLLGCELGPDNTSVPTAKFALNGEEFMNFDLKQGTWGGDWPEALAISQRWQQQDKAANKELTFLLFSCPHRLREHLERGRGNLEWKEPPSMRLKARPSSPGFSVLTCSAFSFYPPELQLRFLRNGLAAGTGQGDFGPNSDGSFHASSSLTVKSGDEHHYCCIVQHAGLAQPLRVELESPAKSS
T1 sequence (P61769 21-119 limits assumed, chain 2 of 2): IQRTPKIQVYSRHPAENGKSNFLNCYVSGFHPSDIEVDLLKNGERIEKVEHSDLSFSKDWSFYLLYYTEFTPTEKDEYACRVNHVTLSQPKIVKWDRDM
T2 sequence (P55899 24-297 limits assumed, chain 1 of 2): as the sequence (P55899 24-297 limits assumed, chain 1 of 2) above
T2 sequence (P61769 21-119 limits assumed, chain 2 of 2): as the sequence (P61769 21-119 limits assumed, chain 2 of 2) above

The first assay concerns the target T1, soluble human FcRn (human, UniProt P55899 24-297; P61769 21-119).
T1 construct: Heterodimer of alpha chain and beta2-microglobulin; also called hFcRn
Briefly: SPR (Biacore), pH 7.0. (In SPR one partner is held on a chip, and binding of the other changes the refractive index at the surface.)
One may read the Kd as the concentration at which binding is half-saturated. Regarding B1, the affinity, expressed as Kd, was 170 nM. Same read-out and setting: the figure for B2 is 49 nM; for B3 it is 55 nM; for B4 it is 48 nM. The same measure, in the same setting: the figure for B5 is 52 nM; for B6 it is 55 nM; for B7 it is 74 nM.

With B8, binding was put at a Kd of 61 nM. Same read-out and setting: next, B9: 59 nM. For B10, the equilibrium dissociation constant (Kd) amounted to 45 nM. This Kd and that of the molecule before are within 1.5-fold of each other. Same read-out and setting: next, B11: 170 nM; B12: 60 nM; B13: 45 nM. Molecule B14 displayed a Kd of 160 nM. On the same count and under the same terms, next, B15: 35 nM; B16: 130 nM. Same read-out and setting: the figure for B17 is 120 nM; for B18 it is 120 nM; for B19 it is 130 nM. Still for that read-out and setting: next, B20: 200 nM; B21: 340 nM; B22: 44 nM. For the molecule B23, the equilibrium dissociation constant (Kd) stood at 140 nM. On the same count and under the same terms, the figure for B24 is 40 nM; for B25 it is 190 nM; for B26 it is 400 nM. The same measure, in the same setting: next, B27: 77 nM.

The next assay has as its target T2, soluble human FcRn (heterodimer of FcRn alpha chain and beta2-microglobulin) (human, UniProt P55899 24-297; P61769 21-119).
T2 construct: Expressed in HEK293H and purified on IgG Sepharose; also called hFcRn
Briefly: SPR Biacore T100, antibody captured via protein L, hFcRn analyte, pH 7.0, 25 C.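 Further: KD derived from kinetic ka and kd fits of sensorgrams, CM4 sensor chip, sodium phosphate NaCl Tween20 running buffer, buffer-only injection used as reference.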
Protocol: An appropriate amount of protein L (ACTIGEN) was immobilized onto Sensor chip CM4 (GE Healthcare) by the amino coupling method, and the chip was allowed to capture an antibody of interest. Then, diluted FcRn solutions and running buffer (as a reference solution) were injected to allow human FcRn to interact with the antibody captured on the sensor chip. The running buffer used comprised 50 mmol/l sodium phosphate, 150 mmol/l NaCl, and 0.05% (w/v) Tween20 (pH 7.0). FcRn was diluted using each buffer. The chip was regenerated using 10 mmol/l glycine-HCl (pH 1.5). Assays were carried out exclusively at 25 degrees C. The association rate constant ka (1/Ms) and dissociation rate constant kd (1/s), both of which are kinetic parameters, were calculated based on the sensorgrams obtained in the assays, and KD (M) of each antibody for human FcRn was determined from these values. Each parameter was calculated using Biacore T100 Evaluation Software (GE Healthcare).
Molecule B28 returned a dissociation constant Kd of 52 nM. In turn, B29 registered a Kd of 14 nM. On to B30, for which binding was characterised by a dissociation constant (Kd) of 160 nM. This Kd lies about 11-fold higher than the previous one. For the molecule B31, the Kd amounted to 13 nM. Still for that read-out and setting: next, B32: 240 nM; B33: 170 nM.

B34: the Kd is 210 nM.

As for B35, the dissociation constant (Kd) was 72 nM. Take B36: the affinity, expressed as Kd, was 160 nM. Same read-out and setting: the figure for B37 is 250 nM; for B38 it is 190 nM. Still for that read-out and setting: the figure for B39 is 160 nM; for B40 it is 170 nM; for B41 it is 130 nM.

B42 had a Kd of 76 nM.

B43: the equilibrium dissociation constant (Kd) was 74 nM. This Kd and that of the molecule before are within 1.5-fold of each other. Same read-out and setting: the figure for B44 is 48 nM; for B45 it is 200 nM. On the same count and under the same terms, next, B46: 150 nM; B47: 180 nM; B48: 62 nM. On the same count and under the same terms, next, B49: 160 nM.
